Measurements from PMC11763261.

T1: CTB5-MBP (OsHox14, HD-Zip I) (Oryza sativa (japonica; KMXBG or Towada …, UniProt Q7XI85 1-240)
T1 sequence: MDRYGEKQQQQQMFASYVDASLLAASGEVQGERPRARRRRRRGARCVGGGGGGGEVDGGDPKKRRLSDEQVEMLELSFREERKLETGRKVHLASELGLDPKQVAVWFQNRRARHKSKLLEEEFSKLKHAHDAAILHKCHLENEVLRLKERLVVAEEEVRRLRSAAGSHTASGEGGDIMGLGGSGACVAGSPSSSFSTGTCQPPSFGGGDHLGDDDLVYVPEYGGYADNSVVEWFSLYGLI

B1: OsGA2ox6 promoter probe mutant (dsDNA)
DNA 1: CGGGGATGTGCAGTTCCCCCCATTTTGTATAAGATT
DNA 2: AATCTTATACAAAATGGGGGGAACTGCACATCCCCG
B2: OsGA3ox1 promoter probe mutant (dsDNA)
DNA 1: ATAGGAAAAAAAATTGGGGGGGGCTTAAATTTTTTGAA
DNA 2: TTCAAAAAATTTAAGCCCCCCCCAATTTTTTTTCCTAT
B3: OsGA2ox6 promoter probe WT (dsDNA)
DNA 1: CGGGGATGTGCAGTTTAATTAATTTTGTATAAGATT
DNA 2: AATCTTATACAAAATTAATTAAACTGCACATCCCCG
B4: OsGA3ox1 promoter probe WT (dsDNA)
DNA 1: ATAGGAAAAAAAATTAATAATTACTTAAATTTTTTGAA
DNA 2: TTCAAAAAATTTAAGTAATTATTAATTTTTTTTCCTAT
B5: PYL9 promoter probe WT (AH1 motif) (dsDNA)
DNA 1: AAAATATATTCAATTATTGATTTGAAACTA
DNA 2: TAGTTTCAAATCAATAATTGAATATATTTT

Target: T1, CTB5-MBP (OsHox14, HD-Zip I)
Assay: EMSA

| Binder | binding result |
| --- | --- |
| B1 | no binding |
| B2 | no binding |
| B3 | binds |
| B4 | binds |
| B5 | binds |
